Assay [1] addresses T1, partial CAPRIN-1 polypeptide consisting of the amino acid sequence of SEQ ID NO: 5 (human).
T1 construct: Synthetic peptide immobilized on ELISA plates
T1 peptide: ATQVPLVSSTSEGYTA
In words: ELISA on immobilized peptides, antibody at 0.1 µg/mL. (In general: An ELISA detects its analyte on a solid surface through an enzyme-linked reagent.)
Experimental: Each peptide was dissolved at a concentration of 30 μg/ml in a 0.1 M sodium carbonate buffer solution (pH 9.6). […] The solution in each well was discarded, and 10 mM ethanolamine/0.1 M sodium carbonate buffer solution (PH 9.6) was added thereto at a concentration of 200 μL/well and left standing at room temperature for 1 hour. Then, the solution in each well was discarded, and each well was washed twice with PBS containing 0.5% Tween 20 (PBST) to prepare a peptide-immobilized plate. For verification, CAPRIN-1 proteins were immobilized on wells of this plate to prepare another plate according to the method described above. […] After shaking at room temperature for 1 hour, the solution in each well was discarded, and each well was washed three times with PBST. Next, a secondary antibody solution containing HRP-labeled anti-rabbit IgG antibodies diluted 3000- to 4000-fold with PBST was added thereto at a concentration of 50 μL/well. Then, the solution in each well was discarded, and each well was washed six times with PBST. A TMB substrate solution (manufactured by Thermo Fisher Scientific Inc.) was added thereto at a concentration of 100 μL/well and left standing for 15 to 30 minutes to cause color reaction. […] The absorbance was measured at 450 nm and 595 nm using an absorption spectrometer.

Assay [2] deals with T1, partial CAPRIN-1 polypeptide consisting …. In words: ELISA as in Example 9(1), purified antibody.
Assay [3] deals with T2, CAPRIN-1 protein on the cell membrane surface of human cancer cell lines (human, UniProt Q14444 2-709).
T2 construct: whole, on cells; Endogenous CAPRIN-1 on human cancer cell lines (MDA-MB-231V, QG56, DLD-1, Capan-2 and others); The cells were not transfected; also called CAPRIN-1 on cancer cell surface
T2 sequence (looked up): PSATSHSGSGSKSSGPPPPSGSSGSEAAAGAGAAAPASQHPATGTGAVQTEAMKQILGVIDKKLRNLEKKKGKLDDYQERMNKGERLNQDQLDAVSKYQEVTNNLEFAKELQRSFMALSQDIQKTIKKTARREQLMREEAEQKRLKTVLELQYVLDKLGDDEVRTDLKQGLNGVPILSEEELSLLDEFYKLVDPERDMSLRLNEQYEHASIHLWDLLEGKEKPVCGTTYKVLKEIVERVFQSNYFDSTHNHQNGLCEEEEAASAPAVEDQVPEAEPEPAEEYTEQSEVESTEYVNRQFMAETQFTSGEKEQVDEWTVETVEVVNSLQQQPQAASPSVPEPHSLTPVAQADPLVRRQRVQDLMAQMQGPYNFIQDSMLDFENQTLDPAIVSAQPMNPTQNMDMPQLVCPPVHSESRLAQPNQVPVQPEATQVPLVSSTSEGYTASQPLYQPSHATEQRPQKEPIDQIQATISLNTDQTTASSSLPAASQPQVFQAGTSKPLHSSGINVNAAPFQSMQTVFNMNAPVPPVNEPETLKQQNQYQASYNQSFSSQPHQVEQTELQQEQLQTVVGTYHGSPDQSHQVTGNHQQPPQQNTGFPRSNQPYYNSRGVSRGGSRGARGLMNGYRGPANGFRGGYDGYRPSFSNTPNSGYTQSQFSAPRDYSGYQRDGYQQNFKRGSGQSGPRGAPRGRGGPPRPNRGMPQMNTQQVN
Nature of the assay: flow cytometry on human cancer cell lines as in Example 9(3).

The target of assay [4] is T1, partial CAPRIN-1 polypeptide consisting …. Nature of the assay: peptide ELISA as in Example 9(3).
Assay [5] concerns the target T3, human CAPRIN-1 protein having the amino acid sequence of SEQ ID NO: 2 (human, UniProt Q14444 1-709, limits assumed).
T3 construct: also called CAPRIN-1 proteins
T3 sequence: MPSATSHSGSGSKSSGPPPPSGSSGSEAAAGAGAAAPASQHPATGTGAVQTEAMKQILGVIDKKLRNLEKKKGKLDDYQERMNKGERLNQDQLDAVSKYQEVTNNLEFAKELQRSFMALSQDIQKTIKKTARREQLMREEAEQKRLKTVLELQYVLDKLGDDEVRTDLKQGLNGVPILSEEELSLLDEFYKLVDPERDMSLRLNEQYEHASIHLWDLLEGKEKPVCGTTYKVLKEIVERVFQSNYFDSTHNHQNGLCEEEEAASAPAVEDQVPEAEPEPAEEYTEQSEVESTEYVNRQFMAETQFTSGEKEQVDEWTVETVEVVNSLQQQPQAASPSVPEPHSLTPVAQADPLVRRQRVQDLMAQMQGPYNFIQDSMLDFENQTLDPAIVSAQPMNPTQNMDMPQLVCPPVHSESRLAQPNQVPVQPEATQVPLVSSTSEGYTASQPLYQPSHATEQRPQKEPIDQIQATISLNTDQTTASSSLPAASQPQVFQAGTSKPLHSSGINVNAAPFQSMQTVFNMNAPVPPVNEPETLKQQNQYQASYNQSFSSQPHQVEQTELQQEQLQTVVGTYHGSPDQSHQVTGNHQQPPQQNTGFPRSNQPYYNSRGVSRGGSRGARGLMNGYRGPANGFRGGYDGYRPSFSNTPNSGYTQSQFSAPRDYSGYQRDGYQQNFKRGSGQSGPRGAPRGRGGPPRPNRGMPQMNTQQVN
In words: ELISA as in Example 9(3).

Changes are numbered by the printed parent chain.

B1: rabbit anti-CAPRIN-1 monoclonal antibody #1 (antibody, V domains shown)
VH: QSLEESGGDLVKPGASLTLTCTASGFSFSGSYYMSWVRQAPGKGLEWIAYIYIGDGVTAYANWAKGRFTISKASSTTVTLQMTSLTAADTATYFCARGNKLWGPGTLVTVSS
VL: DVVMTQTPASVEAAVGGTVTIKCQASQSISSYLAWYQQKPGQPPKRLIYDASNLDSGVPSRFKGSGSGTDFTITISDLECADAATYYCQCTAVSSATIYGNAFGGGTEVVVK
notes: Rabbit hybridoma monoclonal antibody; also called rabbit anti-CAPRIN-1 antibody #1
In the case of B1, in assay [1], the binding result is “binds”.

B2: human-rabbit chimeric anti-CAPRIN-1 antibody #1 (antibody, human IgG1, V domains shown)
VH: B1 VH
VL: B1 VL
notes: also called human-rabbit chimeric anti-CAPRIN-1 monoclonal antibody #1
Regarding B2, the binding result in assay [2] is on record as “binds”.

B3: humanized anti-CAPRIN-1 antibody #2 (antibody, V domains shown)
VH: EVQLVESGGGLVQPGGSLRLSCAASGFSFSGSYYMSWVRQAPGKGLEWIAYIYIGDGVTAYANWAKGRFTISKDNSKNTLYLQMNSLRAEDTAVYFCARGNKLWGPGTLVTVSS
VL: DIQMTQSPSSLSASVGDRVTIKCQASQSISSYLAWYQQKPGKAPKRLIYDASNLDSGVPSRFSGSGSGTDFTFTISSLQPEDIATYYCQCTAVSSATIYGNAFGGGTKVEIK
notes: Human IgG1 heavy chain constant region and 'human IgG1 light chain constant region'; also called humanized rabbit anti-CAPRIN-1 monoclonal antibody #2; humanized anti-CAPRIN-1 monoclonal antibody #2
Consider B3, for which the binding result in assay [3], in assay [4] and in assay [5] was “binds” each time.

B4: humanized anti-CAPRIN-1 antibody #3 (antibody, V domains shown)
VH: B3 VH with K73R, F96Y
VL: B3 VL
notes: Human IgG1 heavy chain constant region and 'human IgG1 light chain constant region'; also called humanized rabbit anti-CAPRIN-1 monoclonal antibody #3; humanized anti-CAPRIN-1 monoclonal antibody #3
For the molecule B4, the binding result in assay [3], in assay [4] and in assay [5] was “binds” each time.

B5: humanized anti-CAPRIN-1 antibody #1 (antibody, V domains shown)
VH: B3 VH with E1Q, Q13K, K73R, S76A, T79S, K102R, P106Q
VL: B3 VL with S14A, A43P
notes: Human IgG1 heavy chain constant region and 'human IgG1 light chain constant region'; also called humanized rabbit anti-CAPRIN-1 monoclonal antibody #1; humanized anti-CAPRIN-1 monoclonal antibody #1
On to B5, for which the binding result in assay [3], in assay [4] and in assay [5] was “binds” in each case.
